# Patent US20230242871A1, “GENERATION OF PRIMORDIAL GERM CELLS AND METHODS OF USING THE SAME” (The Board of Trustees of the Leland Stanfor Junior …, priority 2020, published 2023)
# Tested on: NANOS3-mCherry hESCs
# Assay: PGC differentiation of NANOS3-mCherry hESCs, flow cytometry for NANOS3-mCherry fluorescent reporter expression
# Format: cell-based, human
# From the text: In the NANOS3-mCherry hESC line, a 2A-mCherry fluorescent reporter was inserted immediately downstream of the NANOS3 gene without disrupting its coding sequence (Irie et al., 2014). In the SOX17-GFP hESC line, a GFP fluorescent reporter was inserted immediately after the SOX17 start codon, thus functionally invalidating one SOX17 allele (Wang et al., 2011). In the NANOG-2A-YFP hESC line, Cas9 RNP/AAV6-based genome editing (Martin et al., 2019) was used to insert a 2A-iCaspase9-2A-YFP fluorescent reporter immediately downstream of the NANOG gene without disrupting the NANOG coding sequence.
# hPSC differentiation into PGCs. Undifferentiated hPSCs were maintained in mTeSR1 + 1% penicillin/streptomycin and enzymatically passaged (Accutase, 1:8-1:12 split) for differentiation. After overnight recovery in mTeSR1 + Thiazovivin (ROCK inhibitor, 5 µM), the following morning, hPSCs were briefly washed (DMEM/F12) and differentiated into posterior epiblast for 12 hours (100 ng/mL Activin + 3 µM CHIR99021 + 10 µM Y-27632) in aRB27 basal media, which comprised Advanced RPMI 1640 medium supplemented with 1% B27 supplement, 0.1 mM non-essential amino acids (NEAA), 100 U/ml Penicillin + 0.1 mg/ml Streptomycin, and 2 mM L-Glutamine (Kobayashi et al., 2017). Subsequently, […], […], […], 100 ng/mL SCF, 50 ng/mL EGF, 1 µM XAV939, and 10 µM Y-27632 for 24 hours (all in aRB27 basal media). For comparison, published PGC differentiation protocols (Sasaki et al., 2015; Kobayashi et al., 2017) were performed as described previously.
# Flow cytometry and fluorescence-activated cell sorting (FACS) for cell-surface marker expression. hPSCs or their differentiated derivatives were dissociated using TrypLE Express (Gibco), were washed off the plate with FACS buffer (PBS + 0.1% BSA fraction V [Gibco] + 1 mM EDTA [Gibco] + 1% penicillin/streptomycin [Gibco]) and were pelleted by centrifugation (5 mins, 4° C.). Subsequently, cell pellets were directly resuspended in FACS buffer containing pre-diluted primary antibodies (listed below), thoroughly triturated to ensure a single cell suspension, and primary antibody staining was conducted for 30 mins on ice. Afterwards, cells were washed with an excess of FACS buffer and pelleted again, and this was conducted one more time. Finally, washed cell pellets were resuspended in FACS buffer containing 1.1 µM DAPI (Biolegend), and were strained through a 35 µm filter. Flow cytometry and sorting was conducted on a BD FACSAria II (Stanford Stem Cell Institute FACS Core).
molecule,measurement,setting,value
"BMP4: bone morphogenetic protein 4, UniProt P12644 (protein, UniProt P12644 293-408, looked up) Bone morphogenetic protein 4: SPKHHSQRARKKNKNCRRHSLYVDFSDVGWNDWIVAPPGYQAFYCHGDCPFPLADHLNSTNHAIVQTLVNSVNSSIPKACCVPTELSAISMLYLDEYDKVVLKNYQEMVVEGCGCR",efficiency upon BMP4 subtraction,"BMP4 subtraction from D1.5-2.5, in BMP4 + SCF + EGF + XAV939 + Y-27632 D0.5-3.5, readout D3.5, FIG. 5C",enhance efficiency
same,efficiency on BMP4 titration,"BMP4 titrated to 20 ng/mL on D0.5-3.5, monolayer, readout D3.5, FIG. 5D",without significant loss in efficiency
same,"differentiation of PGCs, BMP4 not omitted","continuous BMP4 in second phase, FIG. 5C",about 10%
same,"differentiation of PGCs, BMP4 omitted","omitting BMP4 from the culture media for 24 hrs at day 2 of differentiation, FIG. 5C",~30%
